Reference: US8816055
Substitutions are numbered along the chain they refer to.

B1: X115-B07 (antibody, V domains shown)
VL: EIVLTQSPGTLSLSPGERATLSCRTSQFVNSNYLAWYQQKPGQAPRLLIYGASSRATGIPDRFSGSGSGTDFTLTISRLEPEDFAVYYCQQSSRTPWTFGQGTKVEIK
VH: EVQLLESGGGLVQPGGSLRLSCAASGFTFSHYLMTWVRQAPGKGLEWVSYISPSGGHTIYADSVKGRFTISRDNSKNTLYLQMNSLRAEDTAVYYCAMVGQGIRGRSRTSYFAQWGQGTLVTVSS
B2: X115-E09 (antibody, V domains shown)
VL: B1 VL
VH: B1 VH with M98R, G100A, R104A, G105A, Y111S, F112V, A113D
B3: X115-D05 (antibody, V domains shown)
VL: B1 VL
VH: EVQLLESGGGLVQPGGSLRLSCAASGFTFSDYMMAWVRQAPGKGLEWVSSIVPSGGHTHYADSVKGRFTISRDNSKNTLYLQMNSLRAEDTAVYYCARVARGIAARSRTSYFDYWGQGTLVTVSS
B4: X115-H06 (antibody, V domains shown)
VL: B1 VL
VH: B1 VH with M98R, G100A, R104S, G105A, A113D, Q114Y
B5: X115-A03 (antibody, V domains shown)
VL: DIQMTQSPSTLSASVGDRVTITCRASQSISSWLAWYQQKPGKAPKLLIYKASTLESGVPSRFSGSGSGTEFTLTISSLQPDDFATYYCQQYNTYWTFGQGTKVEIK
VH: EVQLLESGGGLVQPGGSLRLSCAASGFTFSHYIMMWVRQAPGKGLEWVSGIYSSGGITVYADSVKGRFTISRDNSKNTLYLQMNSLRAEDTAVYYCAWRRIGVPRRDSFDMWGQGTMVTVSS
B6: X115-G04 (antibody, V domains shown)
VL: B5 VL
VH: B5 VH with W98Y, I101T, S108E, M111I
B7: X115-D01 (antibody, V domains shown)
VL: B5 VL
VH: EVQLLESGGGLVQPGGSLRLSCAASGFTFSIYSMHWVRQAPGKGLEWVSSIYPSRGMTWYADSVKGRFTISRDNSKNTLYLQMNSLRAEDTAVYYCAYRRTGIPRRDAFDIWGQGTMVTVSS
B8: X115-F02 (Fab, V domains shown)
VL: B5 VL
VH: B5 VH with W98Y, S108E, M111I

Biological target: human plasma kallikrein (active form) (human), P03952
Experiment: Ki,app on full length pKal, enzyme inhibition
Settings: remark: other sources report otherwise

human plasma kallikrein (active form) (human), P03952, sequence (P03952 20-390, chain 1 of 2): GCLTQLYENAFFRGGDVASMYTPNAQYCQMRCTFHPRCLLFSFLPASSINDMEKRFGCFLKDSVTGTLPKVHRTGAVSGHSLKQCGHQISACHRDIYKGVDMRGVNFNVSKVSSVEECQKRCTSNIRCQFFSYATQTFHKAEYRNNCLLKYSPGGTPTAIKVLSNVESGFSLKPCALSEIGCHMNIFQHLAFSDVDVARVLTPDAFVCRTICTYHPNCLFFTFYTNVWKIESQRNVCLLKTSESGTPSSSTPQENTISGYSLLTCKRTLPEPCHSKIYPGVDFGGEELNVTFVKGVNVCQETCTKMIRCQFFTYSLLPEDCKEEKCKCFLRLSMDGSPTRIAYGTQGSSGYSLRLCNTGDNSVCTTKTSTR
human plasma kallikrein (active form) (human), P03952, sequence (P03952 391-638, chain 2 of 2): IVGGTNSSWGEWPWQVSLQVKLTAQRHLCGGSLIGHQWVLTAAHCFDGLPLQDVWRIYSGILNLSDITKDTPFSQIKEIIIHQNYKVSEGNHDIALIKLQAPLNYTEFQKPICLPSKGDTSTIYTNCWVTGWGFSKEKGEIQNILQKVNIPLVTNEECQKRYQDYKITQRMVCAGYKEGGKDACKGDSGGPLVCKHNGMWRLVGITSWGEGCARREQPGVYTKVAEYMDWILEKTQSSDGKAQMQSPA

Row | Binder | Ki [pM]
1 | B1 | 330
2 | B2 | 340
3 | B3 | 250
4 | B4 | 350
5 | B5 | 160
6 | B6 | 600
7 | B7 | 180
8 | B8 | 89
